Assay results: US20100056457

Key:
[1] = tested on: pE2S six-finger protein (synthetic (Zif268/Sp1C framework)); test: EMSA
[2] = tested on: pE2S six-finger protein (synthetic (Zif268/Sp1C framework)); test: footprint; details: DNase I footprint, 10 uM Zn, 4 C, mean of three; protected exactly the 18 bp site
[3] = tested on: gg1 six-finger protein (synthetic); details: CITED ref 40 (Graslund 2005); cited from earlier work

Substance “CGGGGGGCTCCCCTGGTT (double strand) [E2S target site]” has a Kd [1] of 3.25 nM.

In the case of “ERBB-2 promoter fragment, 267 bp (-209 to +3)”, the Kd [2] is reported as 14 nM.

In the case of “GTCAAGGCAAGGCTGGCC (double strand) [gg1 target site]”, the Kd [3] is given as 0.7 nM.
